17 molecules from patent US20130039936A1 (published 2013) can be followed below.

Read-outs that look alike come from different tables or passages of the source.

Assay [1] has as its target T1, HLA-A2 molecule on T2 cells (human).
T1 construct: also called HLA-A2.1; HLA-A2 molecules
Briefly: T2 binding assay (flow cytometry, BB7.2 anti-HLA-A2 stain of peptide-loaded T2 cells). How it is done: Background fluorescence without BB7.2 was subtracted for each individual value. To compare the different peptides, FI_{0.5} (the peptide concentration that increases HLA-A2.1 expression by 50% over no peptide control background) was calculated from the titration curve for each peptide. […] Each assay was performed in triplicate, and data in this figure are representative of two experiments with similar results.
(§1) Peptide binding capacity to the HLA-A2 molecule was measured by using the T2 cell line according to a protocol described previously (Peters et al., Bioinformatics 19(14):1765-1772, 2003). […] Cells were washed once with cold HBSS containing 0.1% BSA and incubated for 30 minutes at 4° C. with anti-HLA-A2.1 BB7.2 monoclonal antibody (1:40 dilution from hybridoma supernatant). After washing, cells were stained with FITC-labeled goat anti-mouse immunoglobulin (BD, San Jose, Calif.), and the level of HLA expression was measured by flow cytometry. HLA-A2 expression was quantified as fluorescence index (FI) according to the following formula: FI=[(geometric mean fluorescence intensity with peptide-geometric mean fluorescence intensity without peptide)/geometric mean fluorescence intensity without peptide]. Background fluorescence without BB7.2 was subtracted for each individual value. To compare the different peptides, FI_{0.5}, the peptide concentration that increases HLA-A2.1 expression by 50% over no peptide control background, was calculated from the titration curve for each peptide.
The binding affinity of the predicted peptides with HLA-A2 molecules was measured by the T2 binding assay.

The target of assay [2] is T1, HLA-A2 molecule on T2 cells. The description is as above. How it is done: as §1, with “peptide. […]” for “peptide.”
The source holds these as a separate data set.

Assay [3] has the same target. The assay is described as follows: T2 binding assay, FI0.5 against wild type POTE 323. How it is done:
as §1

The target is the same in assay [4]. Briefly: T2 binding assay, FI0.5 against wild type POTE 252. The procedure: as §1

GLTPLLLGV [POTE 272-280] came in with an FI0.5 in assay [1] of 0.9 µM. Turning to LLLEQNVDV [POTE 323-331], the FI0.5 is 0.8 µM in assay [1] and 0.3 µM in assay [2]. Take YLLEQNVDV [POTE 323-1Y]: the FI0.5 in assay [2] was determined as 0.25 µM. Turning to LLFEQNVDV [POTE 323-3F], in assay [3], the “fold better FI0.5 than wild-type POTE 323” value was approximately 3 fold. In assay [2], this molecule gave an FI0.5 of 0.09 µM. In assay [2], LLLEQNADV [POTE 323-7A] showed an FI0.5 of 2.78 µM. Regarding LLAEQNVDV [POTE 323-3A], in assay [2], the FI0.5 amounted to 0.4 µM. As for KLMAKALLL [POTE 252-260], the FI0.5 in assay [1] came out at 1.6 µM; in assay [2], 1.5 µM. In turn, KLAAKALLL [POTE 252-3A] had an FI0.5 in assay [2] of 16.9 µM. For the molecule KLMAKALLV [POTE 252-9V], in assay [4], the “fold lower FI0.5 than POTE 252” value was approximately 2 fold. The molecule also returned an FI0.5 in assay [2] of 0.8 µM. For KLMAKAALL [POTE 252-7A], the FI0.5 in assay [2] is 4 µM. The molecule KLFAKALLL [POTE 252-3F] gave an FI0.5 in assay [2] of 1.5 µM. YLMAKALLL [POTE 252-1Y]: the “fold lower FI0.5 than POTE 252” value in assay [4] is approximately 2 fold. In assay [2], this molecule yielded an FI0.5 of 0.9 µM. For the molecule KILEEIESV [POTE 553-561], the FI0.5 was 5.6 µM in assay [1] and 2.6 µM in assay [2].

The molecule YILEEIESV [POTE 553-1Y] yielded an FI0.5 in assay [2] of 0.024 µM.

Turning to KLLEEIESV [POTE 553-2L], in assay [2], the FI0.5 worked out at 0.1 µM. As to KIFEEIESV [POTE 553-3F], the FI0.5 in assay [2] amounted to 0.3 µM. Still for that read-out and setting: as for KILEEIASV [POTE 553-7A], the figure is 0.2 µM.
